Data published in patent publication US11473073B2, “Aminopeptidases for protein hydrolyzates” (DUPONT NUTRITION BIOSCIENCES APS, priority 2015, dated 2022).

Columns and labels:
Format in all cases: biochemical
gluten [1] = assay: Glutamic acid liberation in gluten hydrolyses (pH and temperature optimum)
Experimental: The liberation of glutamic acid is an important quality parameter in vegetable protein hydrolyses such as soy or gluten hydrolyses. The liberated glutamic acid can be perceived as the so-called “umami-flavor”. In order to determine the effect of the initially applied pH in gluten hydrolyses in terms of glutamic acid and glutamine liberation, the initial pH of a gluten hydrolyses was adjusted just after the liquefaction of the gluten after 15-30 min with 1 M HCl. Gluten was treated with Glutaminase (Amano, Japan). In addition, gluten was treated with FoodPro Alkaline Protease, FoodPro PNL as well as PepN 2 (Neosartorya fischeri). After 20 hr, the hydrolysis was terminated employing ultrafiltration (10 kDa cut-off, Sartorius Stedium Biotech, Göttingen, Germany). The permeate was applied for the enzymatic glutamic acid analyses (enzymatic L-glutamic acid analysis kit, Roche, Mannheim, Germany).
In order to determine the effect of the applied temperature during the gluten hydrolyses in terms of glutamic acid and glutamine liberation, the initial pH was adjusted with 1 M HCl to pH 7.0 just after the liquefaction of the gluten suspension after 15-30 min. Gluten was combined with Glutaminase (Amano, Japan). In addition, gluten was combined FOODPRO® Alkaline Protease, FOODPRO® PNL as well as PepN 2 (Neosartorya fischeri). […]

[2] = test system: whey protein isolate (WPI); assay: Degree of hydrolysis of WPI with endopeptidases plus PepN; settings: for Degree of hydrolysis: 50° C., 18 hr
Experimental: Enzyme activities of PepN 1 Lactobacillus helveticus ATCC® 12046, PepN 1 Aspergillus oryzae and from PepN 2 from Aspergillus clavatus (TRI035) were determined according to Stressler, Eisele et al. (2013, infra). PepN 1 from L. helveticus was expressed and purified as described by Stressler, Eisele et al. (2013, infra).
The PepN 1 and 2 aminopeptidases were standardized to the activity range of 2.5-200 nkat*mL^−1. For protein hydrolyses, 1% (w/wWPI) FOODPRO® Alkaline Protease (DuPont, Brabrand, Denmark) and 1% (w/wWPI) FOODPRO® PNL (DuPont, Brabrand, Denmark) were added to the whey protein isolate suspension (WPI; LACPRODAN® 9224, Arla Ingredients, Viby, Denmark) with an initial pH of 7.0. Following the endopeptidases addition, the WPI was mixed and 200 μL were transferred to each well of a 96-well microtiter plate. The hydrolysis was conducted at 50° C. without pH control and terminated after 18 hr by addition of 20 μL of 2 M TCA. Prior to the determination of the DH (Nielsen, Petersen et al., 2001, infra), all samples were filtered 0.22 μm.

gluten [3] = assay: Degree of hydrolysis in gluten hydrolyses with and without 185 mM NaCl; design: Degree of hydrolysis: unit not given here; settings: for Degree of hydrolysis: Gluten, 50° C., 18 hr
Experimental: (§1) Sodium chloride is frequently applied in the food industry to reduce the microbial contamination risk in protein hydrolyses. Pre-hydrolysed 10% (w/w) soy (SUPRO® 760, DuPont, Brabrand, Denmark) and gluten (Sigma-Aldrich, Schnelldorf, Germany) was prepared by addition of 1% (w/wprotein) FOODPRO® Alkaline Protease (DuPont, Brabrand, Denmark) and 1% (w/wprotein) FOODPRO® PNL (DuPont, Brabrand, Denmark). The hydrolyses were performed at 50° C. at pH 7.0 (without pH control) for 18 hr (heat inactivation after 18 hr; 90° C.; 10 min). Subsequently, the hydrolyses were divided in sodium chloride containing (185 mM) and non-salt containing hydrolyses. 150 μL of each pre-hydrolysed protein suspension was combined with differently standardized Aspergillus clavatus PepN 2 as indicated in Table 3. The hydrolyses were conducted at 50° C. without pH control and terminated after 18 hr by addition of 20 μL of 2 M TCA. Prior to the determination of the DH (Nielsen, Petersen et al. 2001, infra), all samples were filtered 0.22 μm.

soy = assay: Degree of hydrolysis in soy hydrolyses with and without 185 mM NaCl; design: Degree of hydrolysis: unit not given here; settings: for Degree of hydrolysis: SOY, 50° C., 18 hr
Experimental: as §1

[4] = 185 mM NaCl, protein concentration 0.2 mg/mL
[5] = 185 mM NaCl, protein concentration 0.3 mg/mL
[6] = 185 mM NaCl, protein concentration 0.4 mg/mL
[7] = 185 mM NaCl, protein concentration 0.5 mg/mL
[8] = reference (no salt), protein concentration 0.2 mg/mL
[9] = reference (no salt), protein concentration 0.3 mg/mL
[10] = reference (no salt), protein concentration 0.4 mg/mL
[11] = reference (no salt), protein concentration 0.5 mg/mL

B1: TRI031: fungal aminopeptidase type-2 (pepN_2), NCBI XP_001258675 from Neosartorya fischeri NRRL 181, expressed in Trichoderma reesei (protein)
chain: MQTFGAFLVSFLAASGLAAANGPGWDWKPPVHPKVLPQMIHLWDLMHGAQKLEDFAYAYPERNRVFGGPAHEDTVNYLYRELKKTGYYDVYKQPQVHQWTRADQALTVDGKSYVATTMTYSPSVNVTAPLAVVNNLGCVESDYPADLKGKIALVSRGECPFATKSVLSAKAGAAAALVYNNIEGSMAGTLGGPTSELGPYAPIAGISLADGQALIQMIQAGTVTANLWIDSKVENRTTYNVIAQTKGGDPNNVVALGGHTDSVEAGPGINDDGSGIISNLVVAKALTRFSVKNAVRFCFWTAEEFGLLGSSYYVNSLNATEKAKIRLYLNFDMIASPNYALMIYDGDGSAFNLTGPAGSAQIERLFEDYYKSIRKPFVPTEFNGRSDYEAFILNGIPAGGIFTGAEAIKTEEQAKLFGGQAGVALDANYHAKGDNMTNLNREAFLINSKATAFAVATYANSLDSIPSRNMSTVVKRSQLEQAKKSTPHTHTGGTGCYKDRVEQ
modifications: Synthetic peptide with leader sequence
notes: fungal aminopeptidase type-2 (pepN_2), NCBI XP_001258675 from Neosartorya fischeri NRRL 181, expressed in Trichoderma reesei
Gluten [1]; gluten hydrolysis 20 h, initial pH 7.0, range 40-60° C., FIG. 3
  temperature at which PepN 2 performed most efficient (glutamic acid liberation): 60 °C
Gluten [1]; gluten hydrolysis 20 hr with Glutaminase, FoodPro Alkaline Protease, FoodPro PNL, compared to pH 6.0, FIG. 2
  pH range in which PepN 2 performed more efficient (glutamic acid liberation): 7.0-9.0

B2: TRI035: fungal aminopeptidase type-2 (pepN_2), NCBI XP_001273779 from Aspergillus clavatus NRRL 1 (protein)
chain: MQTFGAFLVSFLAASGLAAANAPGGPGGHGRKLPVNPKTFPNEIRLKDLLHGSQKLEDFAYAYPERNRVFGGQAHLDTVNYLYRELKKTGYYDVYKQPQVHQWTRADQSLTLGGDSIQASTMTYSPSVNVTAPLSLVSKLGCAEGDYSADVKGKIALVSRGECSFAQKSVLSAKAGAVATIVYNNVDGSLAGTLGGATSELGPYSPIIGITLAAGQDLVARLQAAPTEVSLWIDSKVENRTTYNVIAQTKGGDPNNVVALGGHTDSVENGPGINDDGSGVISNLVVAKALTRYSVKNAVRFCFWTAEEFGLLGSNYYVDNLSPAELAKIRLYLNFDMIASPNYALMIYDGDGSAFNLTGPPGSAQIESLFENYYKSIKQGFVPTAFDGRSDYEGFILKGIPAGGVFTGAESLKTEEQARLFGGQAGVALDANYHAKGDNMTNLNHKAFLINSRATAFAVATYANNLSSIPPRNATVVKRESMKWTKREEPHTHGADTGCFASRVKE
modifications: Synthetic peptide with leader sequence
[2]; PepN dosage 2.5 nkat/mL in stock solution
  Degree of hydrolysis: 15%
[2]; PepN dosage 5 nkat/mL in stock solution
  Degree of hydrolysis: 17%
[2]; PepN dosage 10 nkat/mL in stock solution
  Degree of hydrolysis: 17%
[2]; PepN dosage 25 nkat/mL in stock solution
  Degree of hydrolysis: 20%
[2]; PepN dosage 50 nkat/mL in stock solution
  Degree of hydrolysis: 24%
[2]; PepN dosage 75 nkat/mL in stock solution
  Degree of hydrolysis: 26%
[2]; PepN dosage 100 nkat/mL in stock solution
  Degree of hydrolysis: 35%
[2]; PepN dosage 200 nkat/mL in stock solution
  Degree of hydrolysis: 36%
[2]; at the two highest dosages
  higher DH than the PepN 1 aminopeptidases: at least 25%
Gluten [3]; 185 mM NaCl, protein concentration 0.1 mg/mL
  Degree of hydrolysis: 14
Gluten [3]; [4]
  Degree of hydrolysis: 15
Gluten [3]; 185 mM NaCl, protein concentration 0.25 mg/mL
  Degree of hydrolysis: 15
Gluten [3]; [5]
  Degree of hydrolysis: 16
Gluten [3]; [6]
  Degree of hydrolysis: 17
Gluten [3]; [7]
  Degree of hydrolysis: 18
Gluten [3]; reference (no salt), protein concentration 0.1 mg/mL
  Degree of hydrolysis: 14
Gluten [3]; [8]
  Degree of hydrolysis: 16
Gluten [3]; reference (no salt), protein concentration 0.25 mg/mL
  Degree of hydrolysis: 17
Gluten [3]; [9]
  Degree of hydrolysis: 16
Gluten [3]; [10]
  Degree of hydrolysis: 17
Gluten [3]; [11]
  Degree of hydrolysis: 18
Gluten [3]; gluten hydrolyses
  influence of 185 mM NaCl on the determined degree of hydrolysis: no influence
soy; [4]
  Degree of hydrolysis: 10
soy; [5]
  Degree of hydrolysis: 11
soy; [6]
  Degree of hydrolysis: 11
soy; [7]
  Degree of hydrolysis: 12
soy; [8]
  Degree of hydrolysis: 11
soy; [9]
  Degree of hydrolysis: 12
soy; [10]
  Degree of hydrolysis: 12
soy; [11]
  Degree of hydrolysis: 12
soy; soy hydrolyses
  influence of 185 mM NaCl on the determined degree of hydrolysis: no influence
